Data published in patent publication US6884870.

Key:
[1] = target: caspase 7 lacking the N-terminal 53 amino acid prodomain (caspase 7^53) (human) (UniProt P55210); assay: cell-based or functional assay
[2] = target: C. elegans caspase CED-3 (C. elegans) (UniProt P42573); assay: cell-based or functional assay
Sequence of UniProt P42573 (P42573 whole entry): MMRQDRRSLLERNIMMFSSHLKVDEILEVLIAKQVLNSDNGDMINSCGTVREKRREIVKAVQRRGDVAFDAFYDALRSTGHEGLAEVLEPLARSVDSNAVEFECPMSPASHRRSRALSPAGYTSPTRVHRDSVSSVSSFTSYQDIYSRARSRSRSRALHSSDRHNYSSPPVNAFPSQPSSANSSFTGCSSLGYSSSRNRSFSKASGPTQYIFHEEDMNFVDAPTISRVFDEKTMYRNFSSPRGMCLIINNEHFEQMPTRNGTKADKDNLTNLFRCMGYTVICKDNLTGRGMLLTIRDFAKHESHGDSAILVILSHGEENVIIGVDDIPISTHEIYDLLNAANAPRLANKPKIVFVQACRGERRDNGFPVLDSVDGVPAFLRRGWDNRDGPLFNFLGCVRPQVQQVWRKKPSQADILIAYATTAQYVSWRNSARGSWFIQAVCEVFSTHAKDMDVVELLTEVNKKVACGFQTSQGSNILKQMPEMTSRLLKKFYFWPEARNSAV

Sequence of UniProt P55210 (P55210 54-303 limits assumed): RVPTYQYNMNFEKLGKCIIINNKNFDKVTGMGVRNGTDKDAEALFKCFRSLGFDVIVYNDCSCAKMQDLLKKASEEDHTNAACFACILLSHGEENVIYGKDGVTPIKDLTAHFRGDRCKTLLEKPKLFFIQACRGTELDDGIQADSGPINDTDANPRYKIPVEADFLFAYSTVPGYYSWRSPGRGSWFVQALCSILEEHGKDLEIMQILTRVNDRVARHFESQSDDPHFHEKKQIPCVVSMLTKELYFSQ

Row | Substance | beta-gal activity (ONPG assay) of the caspase-dependent CLBDG6 LexA/lacZ reporter in yeast (fold inhibition) [1] | beta-gal activity (ONPG assay) of the caspase-dependent CLBDG6 LexA/lacZ reporter in yeast (fold inhibition) [2]
1 | baculovirus p35 (from UniProt P08160 1-299) | 5 | 5
2 | mouse IAP MIHA (from UniProt Q60989 1-496) | 2 | –
